# Measured values taken from publication PMC6019379, “RecA-like domain 2 of DNA-dependent ATPase A domain, a SWI2/SNF2 protein, mediates conformational integrity and ATP hydrolysis” (Bioscience Reports, 2018).
# T1: ADAAD F507A/R592A (Bos taurus (bovine), UniProt Q9TTA5 221-940, F727A;R812A)
# T1 sequence: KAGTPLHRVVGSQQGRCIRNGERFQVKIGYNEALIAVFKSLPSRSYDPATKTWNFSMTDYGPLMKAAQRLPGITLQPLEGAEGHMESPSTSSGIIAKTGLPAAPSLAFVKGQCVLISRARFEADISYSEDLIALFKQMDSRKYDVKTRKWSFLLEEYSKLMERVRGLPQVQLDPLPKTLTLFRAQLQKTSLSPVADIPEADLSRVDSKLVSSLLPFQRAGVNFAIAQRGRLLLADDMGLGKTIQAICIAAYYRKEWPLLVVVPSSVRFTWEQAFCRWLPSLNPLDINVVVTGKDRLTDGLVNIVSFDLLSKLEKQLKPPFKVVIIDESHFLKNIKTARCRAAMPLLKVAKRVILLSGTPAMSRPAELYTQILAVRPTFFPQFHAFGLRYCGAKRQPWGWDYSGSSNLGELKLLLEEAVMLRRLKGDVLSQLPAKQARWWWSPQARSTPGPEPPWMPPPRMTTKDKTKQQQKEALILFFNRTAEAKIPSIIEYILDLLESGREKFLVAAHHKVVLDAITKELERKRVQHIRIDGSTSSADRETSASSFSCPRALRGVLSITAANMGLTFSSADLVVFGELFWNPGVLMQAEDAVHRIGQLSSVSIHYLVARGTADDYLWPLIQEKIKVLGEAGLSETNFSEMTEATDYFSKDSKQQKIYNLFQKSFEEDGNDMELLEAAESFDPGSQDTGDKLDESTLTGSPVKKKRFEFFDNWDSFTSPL
# T2: ADAAD D591H (Bos taurus (bovine), UniProt Q9TTA5 221-940, D811H)
# T2 sequence: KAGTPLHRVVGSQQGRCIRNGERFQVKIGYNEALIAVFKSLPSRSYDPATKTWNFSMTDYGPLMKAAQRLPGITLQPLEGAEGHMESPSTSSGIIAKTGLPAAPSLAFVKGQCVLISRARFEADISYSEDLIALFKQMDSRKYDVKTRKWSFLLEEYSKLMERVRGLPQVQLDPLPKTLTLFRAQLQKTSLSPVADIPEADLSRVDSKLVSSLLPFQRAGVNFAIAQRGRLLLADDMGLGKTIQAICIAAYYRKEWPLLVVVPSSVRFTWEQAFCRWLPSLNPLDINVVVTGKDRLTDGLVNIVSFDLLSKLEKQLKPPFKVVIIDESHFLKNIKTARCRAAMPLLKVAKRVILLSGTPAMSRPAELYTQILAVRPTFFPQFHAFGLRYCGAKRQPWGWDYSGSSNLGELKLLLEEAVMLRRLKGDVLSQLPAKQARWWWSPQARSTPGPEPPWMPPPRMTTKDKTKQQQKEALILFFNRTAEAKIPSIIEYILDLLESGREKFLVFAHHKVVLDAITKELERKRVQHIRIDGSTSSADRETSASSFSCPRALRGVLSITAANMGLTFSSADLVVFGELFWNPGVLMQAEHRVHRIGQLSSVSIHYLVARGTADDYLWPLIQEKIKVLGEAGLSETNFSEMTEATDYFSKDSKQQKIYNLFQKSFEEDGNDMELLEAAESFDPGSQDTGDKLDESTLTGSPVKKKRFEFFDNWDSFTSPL
# T3: ADAAD F507A (Bos taurus (bovine), UniProt Q9TTA5 221-940, F727A)
# T3 sequence: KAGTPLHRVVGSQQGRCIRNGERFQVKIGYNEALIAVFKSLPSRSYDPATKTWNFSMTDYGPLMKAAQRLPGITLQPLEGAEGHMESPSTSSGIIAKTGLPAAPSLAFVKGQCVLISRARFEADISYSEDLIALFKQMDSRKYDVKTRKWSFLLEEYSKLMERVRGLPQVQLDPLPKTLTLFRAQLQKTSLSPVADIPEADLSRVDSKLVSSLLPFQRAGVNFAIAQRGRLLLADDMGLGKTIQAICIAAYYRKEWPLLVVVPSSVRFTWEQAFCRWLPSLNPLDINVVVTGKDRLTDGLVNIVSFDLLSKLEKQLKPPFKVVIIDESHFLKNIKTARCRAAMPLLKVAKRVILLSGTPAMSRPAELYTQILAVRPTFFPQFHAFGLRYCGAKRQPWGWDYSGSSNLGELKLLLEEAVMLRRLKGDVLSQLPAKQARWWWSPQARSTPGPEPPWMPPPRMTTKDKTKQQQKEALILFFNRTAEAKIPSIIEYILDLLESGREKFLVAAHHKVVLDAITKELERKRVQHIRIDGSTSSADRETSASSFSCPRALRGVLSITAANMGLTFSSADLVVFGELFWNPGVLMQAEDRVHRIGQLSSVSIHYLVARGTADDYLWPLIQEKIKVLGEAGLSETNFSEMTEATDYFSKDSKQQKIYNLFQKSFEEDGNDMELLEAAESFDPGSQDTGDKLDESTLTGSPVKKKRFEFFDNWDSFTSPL
# Columns and labels:
# Assay in all cases: intrinsic tryptophan fluorescence titration; no ATP; Fluorescence titration (ex 295 nm, em 340 nm), one-site saturation fit; buffer, salt, pH and temperature not given in the material. Wild-type ADAAD Kd values are cited from ref 24 and not listed
# Conditions in all cases: protein: recombinant; tags: His (Ni-NTA, pET-14b); hairpin
# ADAAD F507A/R592A = target: T1, ADAAD F507A/R592A
# ADAAD D591H = target: T2, ADAAD D591H
# ADAAD F507A = target: T3, ADAAD F507A
binder,measurement,setting,value
GCGCAATTGCGCTCGACGATTTTTTAGCGCAATTGCGC (structured_DNA) [slDNA (stem-loop DNA)],Kd,ADAAD F507A/R592A,27.8 ± 3.6 nM
same,Kd,ADAAD D591H,21.3 ± 7 nM
same,Kd,ADAAD F507A,19 ± 4.5 nM
